Measured values as given in IntAct's records for PubMed 24535599.

B1: Growth factor receptor-bound protein 14 (Homo sapiens), Q14449 (parent)
chain: MTTSLQDGQSAASRAAARDSPLAAQVCGAAQGRGDAHDLAPAPWLHARALLPLPDGTRGCAADRRKKKDLDVPEMPSIPNPFPELCCSPFTSVLSADLFPKANSRKKQVIKVYSEDETSRALDVPSDITARDVCQLLILKNHYIDDHSWTLFEHLPHIGVERTIEDHELVIEVLSNWGIEEENKLYFRKNYAKYEFFKNPMYFFPEHMVSFATETNGEISPTQILQMFLSSSTYPEIHGFLHAKEQGKKSWKKIYFFLRRSGLYFSTKGTSKEPRHLQFFSEFGNSDIYVSLAGKKKHGAPTNYGFCFKPNKAGGPRDLKMLCAEEEQSRTCWVTAIRLLKYGMQLYQNYMHPYQGRSGCSSQSISPMRSISENSLVAMDFSGQKSRVIENPTEALSVAVEEGLAWRKKGCLRLGTHGSPTASSQSSATNMAIHRSQPWFHHKISRDEAQRLIIQQGLVDGVFLVRDSQSNPKTFVLSMSHGQKIKHFQIIPVEDDGEMFHTLDDGHTRFTDLIQLVEFYQLNKGVLPCKLKHYCARIAL

Variants of: B1
Conditions: with INSR

effect of a mutation on the interaction | Variant
increasing interaction strength | S358A;S362A;S366A
